Assay results reported in the supplement of paper PMC7877785.
± gives the uncertainty stated by the source.

Assay: self-splicing fitness, log relative to wild type (ln ratio); higher = more splicing; Tetrahymena group I intron in knt gene, E. coli kanamycin selection, DiMSum; sequences stand for … in CUCUCU…GGAGGGAAAAGUUAUCAGGCAUGCACCUGGUAGCUAGUCUUUAAACCAAUAGAUUGCAUCGGUUUAAAAGGCAAGACCGUCAAAUUGCGGGAAAGGGGUCAACAGCCGUUCAGUACCAAGUCUCAGGGGAAACUUUGAGAUGGCCUUGCAAAGGGUAUGGUAAUAAGCUGACGGACAUGGUCCUAACCACGCAGCCAAGUCCUAAGUCAACAGAUCUUCUGUUGAUAUGGAUGCAGUUCACAGACUAAAUGUCGGUCGGGGAAGAUGUAUUCUUCUCAUAAGAUAUAGUCGGACCUCUCCUUAAUGGGAGCUAGCGGAUGAAGUGAUGCAACACUGGAGCCGCUGGGAACUAAUUUGUAUGCGAAAGUAUAUUGAUUAGUUUUGGAGUACUCGUGGUCG
Procedure, shortened: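 Colonies from six replicate transformations of E. coli BL21(DE3) were pooled and amplicon-sequenced on an Illumina HiSeq 2500. The library placed an intron with all eight P1ex-region nucleotides randomised inside the knt kanamycin-resistance gene on pET-22b(+), and cells grew overnight at 37°C or 30°C on LB agar with or without 25 μg/mL kanamycin (plus 100 μg/mL carbenicillin, 50 μM IPTG, 0.2% rhamnose). Fitness is the DiMSum error-weighted combination of wild-type-normalised replicate fold changes, kanamycin versus none.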

In the case of CUGGAGCAAUAUUACGCGCG, the “self-splicing fitness (ln)” value (30 °C) is reported as -2.2 ± 0.14 and the “self-splicing fitness (ln)” value (37 °C) is reported as -0.917 ± 0.13.

In the case of CUGGAGCAAUAUUACGCGUC, the “self-splicing fitness (ln)” value (30 °C) is reported as -3.41 ± 0.27 and the “self-splicing fitness (ln)” value (37 °C) is reported as -1.76 ± 0.27.

With CUGGAGCAAUAUUACGCUCA the “self-splicing fitness (ln)” value (30 °C) was -3.4 ± 0.36 and the “self-splicing fitness (ln)” value (37 °C) was -0.5 ± 0.3.

With CUGGAGCAAUAUUACGCUUU the “self-splicing fitness (ln)” value (30 °C) was -3.02 ± 0.32 and the “self-splicing fitness (ln)” value (37 °C) was -3.22 ± 0.47.

With CUGGAGCAAUAUUACGGAAC the “self-splicing fitness (ln)” value (30 °C) was -3.5 ± 0.33 and the “self-splicing fitness (ln)” value (37 °C) was -2.64 ± 0.3.

With CUGGAGCAAUAUUACGGACU the “self-splicing fitness (ln)” value (30 °C) was -3.12 ± 0.25 and the “self-splicing fitness (ln)” value (37 °C) was -2.07 ± 0.46.

With CUGGAGCAAUAUUACGGCAU the “self-splicing fitness (ln)” value (30 °C) was -3.26 ± 0.47.

With CUGGAGCAAUAUUACGGCUA the “self-splicing fitness (ln)” value (37 °C) was -1.11 ± 0.47.

With CUGGAGCAAUAUUACGGGAG the “self-splicing fitness (ln)” value (30 °C) was -3.19 ± 0.28 and the “self-splicing fitness (ln)” value (37 °C) was -0.913 ± 0.19.

With CUGGAGCAAUAUUACGGGCA the “self-splicing fitness (ln)” value (30 °C) was -1.06 ± 0.38.

For CUGGAGCAAUAUUACGGUGC, the “self-splicing fitness (ln)” value (30 °C) was -3.49 ± 0.48.

With CUGGAGCAAUAUUACGUAAC the “self-splicing fitness (ln)” value (30 °C) was -3.25 ± 0.32 and the “self-splicing fitness (ln)” value (37 °C) was -1.86 ± 0.3.

For CUGGAGCAAUAUUACGUGCU, the “self-splicing fitness (ln)” value (30 °C) was -2.27 ± 0.23 and the “self-splicing fitness (ln)” value (37 °C) was -2.91 ± 0.34.

With CUGUAGCAAUAUUACGAAAG the “self-splicing fitness (ln)” value (30 °C) was -1.61 ± 0.1 and the “self-splicing fitness (ln)” value (37 °C) was -0.788 ± 0.14.

In the case of CUGUAGCAAUAUUACGACAG, the “self-splicing fitness (ln)” value (30 °C) is reported as -4.61 ± 0.3 and the “self-splicing fitness (ln)” value (37 °C) is reported as -1.97 ± 0.21.

In the case of CUGUAGCAAUAUUACGACGU, the “self-splicing fitness (ln)” value (30 °C) is reported as -1.13 ± 0.21 and the “self-splicing fitness (ln)” value (37 °C) is reported as -1.54 ± 0.26.

For CUGUAGCAAUAUUACGAGGA, the “self-splicing fitness (ln)” value (30 °C) was -2.78 ± 0.41 and the “self-splicing fitness (ln)” value (37 °C) was -1.62 ± 0.32.

In the case of CUGUAGCAAUAUUACGCAAU, the “self-splicing fitness (ln)” value (30 °C) is reported as -2.63 ± 0.36 and the “self-splicing fitness (ln)” value (37 °C) is reported as -1.99 ± 0.25.

For CUGUAGCAAUAUUACGCAGG, the “self-splicing fitness (ln)” value (30 °C) was -3.56 ± 0.27 and the “self-splicing fitness (ln)” value (37 °C) was -2.73 ± 0.2.

In the case of CUGUAGCAAUAUUACGCGAA, the “self-splicing fitness (ln)” value (30 °C) is reported as -1.86 ± 0.35 and the “self-splicing fitness (ln)” value (37 °C) is reported as -2.26 ± 0.45.

In the case of CUGUAGCAAUAUUACGCUCG, the “self-splicing fitness (ln)” value (30 °C) is reported as -1 ± 0.18 and the “self-splicing fitness (ln)” value (37 °C) is reported as -0.773 ± 0.25.

For CUGUAGCAAUAUUACGCUUA, the “self-splicing fitness (ln)” value (30 °C) was -3.24 ± 0.37 and the “self-splicing fitness (ln)” value (37 °C) was -3.24 ± 0.43.

In the case of CUGUAGCAAUAUUACGGGUU, the “self-splicing fitness (ln)” value (30 °C) is reported as -3.94 ± 0.23 and the “self-splicing fitness (ln)” value (37 °C) is reported as -3.13 ± 0.31.

In the case of CUGUAGCAAUAUUACGGUCU, the “self-splicing fitness (ln)” value (30 °C) is reported as -3.53 ± 0.14 and the “self-splicing fitness (ln)” value (37 °C) is reported as -2.96 ± 0.21.

In the case of CUGUAGCAAUAUUACGGUUU, the “self-splicing fitness (ln)” value (30 °C) is reported as -4.11 ± 0.26 and the “self-splicing fitness (ln)” value (37 °C) is reported as -2.69 ± 0.32.

For CUGUAGCAAUAUUACGUCCU, the “self-splicing fitness (ln)” value (30 °C) was -3.57 ± 0.4.

With CUGUAGCAAUAUUACGUGGG the “self-splicing fitness (ln)” value (30 °C) was -3.78 ± 0.22 and the “self-splicing fitness (ln)” value (37 °C) was -2.05 ± 0.18.

For CUGUAGCAAUAUUACGUUAC, the “self-splicing fitness (ln)” value (30 °C) was -2.77 ± 0.34 and the “self-splicing fitness (ln)” value (37 °C) was -1.72 ± 0.32.

With CUUAAGCAAUAUUACGAAGG the “self-splicing fitness (ln)” value (30 °C) was -2.89 ± 0.17 and the “self-splicing fitness (ln)” value (37 °C) was -1.54 ± 0.24.

In the case of CUUAAGCAAUAUUACGACAU, the “self-splicing fitness (ln)” value (30 °C) is reported as -3.434 ± 0.023 and the “self-splicing fitness (ln)” value (37 °C) is reported as -2.11 ± 0.036.

For CUUAAGCAAUAUUACGAUCC, the “self-splicing fitness (ln)” value (30 °C) was -3.31 ± 0.44.

With CUUAAGCAAUAUUACGAUCG the “self-splicing fitness (ln)” value (30 °C) was -0.53 ± 0.082 and the “self-splicing fitness (ln)” value (37 °C) was 0.874 ± 0.12.

With CUUAAGCAAUAUUACGAUGC the “self-splicing fitness (ln)” value (30 °C) was -3.42 ± 0.35 and the “self-splicing fitness (ln)” value (37 °C) was -2.1 ± 0.33.

In the case of CUUAAGCAAUAUUACGAUGG, the “self-splicing fitness (ln)” value (30 °C) is reported as -1.17 ± 0.082 and the “self-splicing fitness (ln)” value (37 °C) is reported as -0.43 ± 0.11.

For CUUAAGCAAUAUUACGAUUA, the “self-splicing fitness (ln)” value (30 °C) was -3.71 ± 0.26 and the “self-splicing fitness (ln)” value (37 °C) was -2.72 ± 0.21.

With CUUAAGCAAUAUUACGCAAU the “self-splicing fitness (ln)” value (37 °C) was -2.62 ± 0.44.

For CUUAAGCAAUAUUACGCACC, the “self-splicing fitness (ln)” value (30 °C) was -1.86 ± 0.45.

In the case of CUUAAGCAAUAUUACGCCCU, the “self-splicing fitness (ln)” value (30 °C) is reported as -3.17 ± 0.32 and the “self-splicing fitness (ln)” value (37 °C) is reported as -1.96 ± 0.43.

In the case of CUUAAGCAAUAUUACGCCUA, the “self-splicing fitness (ln)” value (30 °C) is reported as -1.91 ± 0.38.

In the case of CUUAAGCAAUAUUACGCCUU, the “self-splicing fitness (ln)” value (37 °C) is reported as -2.63 ± 0.39.

In the case of CUUAAGCAAUAUUACGCGUC, the “self-splicing fitness (ln)” value (30 °C) is reported as -2.08 ± 0.12 and the “self-splicing fitness (ln)” value (37 °C) is reported as -3.25 ± 0.23.

For CUUAAGCAAUAUUACGCUAA, the “self-splicing fitness (ln)” value (30 °C) was -3.21 ± 0.39 and the “self-splicing fitness (ln)” value (37 °C) was -1.58 ± 0.3.

With CUUAAGCAAUAUUACGCUAC the “self-splicing fitness (ln)” value (30 °C) was -4.22 ± 0.42 and the “self-splicing fitness (ln)” value (37 °C) was -2.34 ± 0.36.

With CUUAAGCAAUAUUACGCUGG the “self-splicing fitness (ln)” value (30 °C) was -4.54 ± 0.32 and the “self-splicing fitness (ln)” value (37 °C) was -2.64 ± 0.18.

With CUUAAGCAAUAUUACGGAAG the “self-splicing fitness (ln)” value (30 °C) was -2.03 ± 0.17 and the “self-splicing fitness (ln)” value (37 °C) was -0.419 ± 0.14.

In the case of CUUAAGCAAUAUUACGGAAU, the “self-splicing fitness (ln)” value (30 °C) is reported as -3.96 ± 0.31 and the “self-splicing fitness (ln)” value (37 °C) is reported as -2.29 ± 0.31.

With CUUAAGCAAUAUUACGGAUU the “self-splicing fitness (ln)” value (30 °C) was -3.94 ± 0.32 and the “self-splicing fitness (ln)” value (37 °C) was -3.41 ± 0.47.

With CUUAAGCAAUAUUACGGCCC the “self-splicing fitness (ln)” value (30 °C) was -2.8 ± 0.4.

In the case of CUUAAGCAAUAUUACGGGGG, the “self-splicing fitness (ln)” value (30 °C) is reported as -3.65 ± 0.2 and the “self-splicing fitness (ln)” value (37 °C) is reported as -1.26 ± 0.23.

With CUUAAGCAAUAUUACGGGUU the “self-splicing fitness (ln)” value (30 °C) was -2.65 ± 0.19 and the “self-splicing fitness (ln)” value (37 °C) was -3.2 ± 0.27.

In the case of CUUAAGCAAUAUUACGGUAA, the “self-splicing fitness (ln)” value (37 °C) is reported as -3.38 ± 0.37.
